Test results reported in paper PMC3779351 (Journal of Molecular Biology, 2013).

Assays:
Assay in all cases: SPR
GST-Cul5^NTD Leu52Ala = GST-Cul5^NTD Leu52Ala (mouse, UniProt Q9D5V5 1-384, Leu52Ala | Val341Arg | Leu345Asp)
GST-Cul5^NTD Phe41Ala = GST-Cul5^NTD Phe41Ala (mouse, UniProt Q9D5V5 1-384, Phe41Ala | Val341Arg | Leu345Asp)
GST-Cul5^NTD (wild type) = GST-Cul5^NTD (wild type) (mouse, UniProt Q9D5V5 1-384, Val341Arg | Leu345Asp)
GST-Cul5^NTD Gln113Ala = GST-Cul5^NTD Gln113Ala (mouse, UniProt Q9D5V5 1-384, Gln113Ala | Val341Arg | Leu345Asp)
GST-Cul5^NTD Gln113Ala, sequence (Q9D5V5 1-384 Q113A/V341R/L345D): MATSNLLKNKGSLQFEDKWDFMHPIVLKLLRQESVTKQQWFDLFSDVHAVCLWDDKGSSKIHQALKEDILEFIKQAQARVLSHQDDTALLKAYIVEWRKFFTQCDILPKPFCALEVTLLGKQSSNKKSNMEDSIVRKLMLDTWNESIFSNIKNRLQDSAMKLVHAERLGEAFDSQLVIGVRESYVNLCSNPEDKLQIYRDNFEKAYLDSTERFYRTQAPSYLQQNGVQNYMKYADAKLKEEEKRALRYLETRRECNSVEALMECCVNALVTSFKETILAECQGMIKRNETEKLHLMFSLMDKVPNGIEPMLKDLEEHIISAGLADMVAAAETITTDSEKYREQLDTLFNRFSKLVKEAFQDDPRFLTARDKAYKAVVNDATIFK

GST-Cul5^NTD His48Ala = GST-Cul5^NTD His48Ala (mouse, UniProt Q9D5V5 1-384, His48Ala | Val341Arg | Leu345Asp)
GST-Cul5^NTD His48Ala, sequence (Q9D5V5 1-384 H48A/V341R/L345D): as the sequence (Q9D5V5 1-384 Q113A/V341R/L345D) above, with H48A, A113Q counted along it

GST-Cul5^NTD Leu52Ala, sequence (Q9D5V5 1-384 L52A/V341R/L345D): as the sequence (Q9D5V5 1-384 Q113A/V341R/L345D) above, with L52A, A113Q counted along it
GST-Cul5^NTD (wild type), sequence (Q9D5V5 1-384 V341R/L345D): as the sequence (Q9D5V5 1-384 Q113A/V341R/L345D) above, with A113Q counted along it
GST-Cul5^NTD Phe41Ala, sequence (Q9D5V5 1-384 F41A/V341R/L345D): as the sequence (Q9D5V5 1-384 Q113A/V341R/L345D) above, with F41A, A113Q counted along it

- binding result (GST-Cul5^NTD Leu52Ala): binds
- fold loss in affinity against wild-type Cul5 (GST-Cul5^NTD Phe41Ala): 50 fold
- binding result (GST-Cul5^NTD (wild type)): binds
- binding result (GST-Cul5^NTD Gln113Ala): binds
- fold loss in affinity against wild-type Cul5 (GST-Cul5^NTD His48Ala): 50 fold
B1: ASB9–Elongin B/C ternary complex (wild type) (complex)
chain 1: SDWSPMHEAAIHGHQLSLRNLISQGWAVNIITADHVSPLHEACLGGHLSCVKILLKHGAQVNGVTADWHTPLFNACVSGSWDCVNLLLQHGASVQPESDLASPIHEAARRGHVECVNSLIAYGGNIDHKISHLGTPLYLACENQQRACVKKLLESGADVNQGKGQDSPLHAVARTASEELACLLMDFGADTQAKNAEGKRPVELVPPESPLAQLFLEREGPPSLMQLCRLRIRKCFGIQQHHKITKLVLPEDLKQFLLHL
chain 2: […]
chain 3: […]
